± gives the uncertainty stated by the source.
Test: amyloid nucleation score (Sup35N fusion, yeast selection) (log enrichment); library NNK2; higher = more nucleation; inactive = no reads after selection
In short: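 Sup35N fusions to peptides of 20 random codons were expressed in psi-negative yeast, induced 24 hours with 100 μM copper sulfate, and grown 7 days at 30°C on medium lacking adenine and uracil. Input and output plasmid inserts were sequenced by Illumina. The nucleation score is the DiMSum log enrichment of output over input reads, centred on the mode score of non-aggregating sequences. Sequences with under 100 input reads were excluded.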

Substance | amyloid nucleation score
ASLTASAGVVFFYTPTRRYN | 3.16 ± 0.14
GFYIKVFNSEWYALNLDVRL | 4.67 ± 0.075
FRGTCYMAIVDYLCNTFEGP | 1.37 ± 0.11
CPCSRCLVDNKVRL | -0.41 ± 0.45
FLEQFVMSLT | -0.752 ± 0.44
DMFIVYSSLYRSFLIFESLH | -2.42 ± 0.75
TMELFLRRFYIWIKDIDNGR | inactive
VYFFCYSFTYEEGMAIRKSC | -1 ± 0.78
VLVCSANRLCNEPTIDRVLG | 4.14 ± 0.057
WSYQYRLPILTTFSDFVWRK | -0.339 ± 0.28
RRFCSCQLSKPLIFPMVLYW | -0.454 ± 0.53
DRNYVQNSSTKMHYWASFLT | 1.71 ± 0.17
LYFMCNFLTCSL | 7.893 ± 0.057
ITISII | 0.044 ± 1.1
WHGTDHKIVGQDIVVVYSAV | 0.491 ± 0.6
VLWMVQMIRPRSS | 7.02 ± 0.074
LLFIIMRDLLYPTLEDTFLT | 0.317 ± 0.5
AGSLRR | 1.51 ± 0.41
PAYRYKHSNWKNPRQ | inactive
NADHDLSEILVNRRTGWFHF | 5.836 ± 0.041
FACRWFQSWSLRYLFPELTL | -0.238 ± 0.5
GIGMRQYMNT | 0.823 ± 0.32
MTIHVSTELAALSSGL | 1.11 ± 0.17
QGVDNGDRGRGRNLWASMRR | 1.34 ± 0.39
SFVMYRNSGRVCGMRVASEW | 0.766 ± 0.22

Substance | amyloid nucleation score
LQLVMKCRVKCAFLPGGMAW | 5.246 ± 0.048
SGFGGLEGFIRPSYSLLAGW | -0.424 ± 0.48
RGSRNNQVWGQSFFMPQWTA | -0.405 ± 0.41
QVSDVRDLNFWISVTHVEVG | 3.4 ± 0.12
VVSCGYARHDVGDFWLRDCR | 0.481 ± 0.38
YVLRYYALVLYFLICWYYAY | 0.215 ± 0.57
VFNFVSFRFDDTVD | 6.987 ± 0.04
YSFNALRRY | 0.632 ± 0.25
VDNYEQLTMKNEHETNT | -0.902 ± 0.45
SASDTRGCCQHIPVSLGILT | 0.119 ± 0.74
CRRRSPTNGGVNVRN | 0.41 ± 0.74
FRAFLQITLILNCGSSASDV | 3.45 ± 0.11
GMNQCCPD | -0.455 ± 0.61
KKSHFLKRYNTAYVGRHLVH | -0.07 ± 0.53
KFTSCAVNNDIMLLLVRVGF | -1.61 ± 0.75
FICCNNSQIRVSFWLRTWYL | 3.39 ± 0.048
TANKLLVSIIKIEEYVSRGT | 4.73 ± 0.058
TMILCRKYNASWMIVARNDL | -0.311 ± 1.1
KNKWRSMV | 0.953 ± 0.18
GVFYDKYRGSVWSEDCKLWT | inactive
DKLLMVSIFFSDSMTSLS | inactive
KGTYNDIMLRYACCMAGVKR | -0.053 ± 0.49
YYKKTVVPYRLYAGLELIAT | -0.607 ± 0.48
NHTLVLLIRNSNVHVSTAQS | 10.78 ± 0.07
YISVCSYCH | 4.9 ± 0.056

Substance | amyloid nucleation score
IKATCAGSNIFDNLALKDAS | inactive
RVTFNFRGMYKLIIMGGVPP | 6.49 ± 0.085
SKKTIVFGGTIRTTALPGPG | -0.592 ± 0.76
YVSFMGNSNMFVKLFLRGCI | 0.391 ± 0.2
SSYVVNSERVSDVARHSTLQ | 1.91 ± 0.21
WIHMSFGRLNRYMVRMRGRM | -0.71 ± 1
SFIWSLMSLIEFPVLYKSVV | 0.067 ± 0.32
GFEQRGIRVMFVPYDINFSV | 6.269 ± 0.031
TYIPGLVRTSLCGVA | -0.245 ± 0.35
VIVLIVLPEYAGVYSHWCWD | 0.772 ± 0.81
WYSSGMTGIIRRVDKWCAFS | -0.939 ± 0.45
GAAFILSIYYQPSTTPPLRA | 2.62 ± 0.084
IAVRDALVSVQLLPPENVGV | 1.13 ± 0.15
YGRCVDLFCGIRYLHGSRLA | -0.299 ± 1.1
WPRFTCCPTYYICIAQSPGQ | 9.807 ± 0.035
FYIGFYSPGLCVRFKFFSAR | -1.85 ± 1.1
AKPRYN | 0.221 ± 0.42
YWGGLCHLMSYRFTCIKYVG | -0.698 ± 0.64
LSKPDLRTGSDDMS | -0.297 ± 0.79
SMSYTS | 0.617 ± 0.14
TWFRSVMYPDLSHFYMF | inactive
HWTYTFRLNSSSSIYQNCSD | -0.71 ± 1
HWYTAMVYIFKRQD | 0.974 ± 0.091
SMSIYKAAYSFVTGSP | 7.475 ± 0.026
IVDRAFDRAFRCGTGFGTDI | inactive

Substance | amyloid nucleation score
LYWSLCDFCN | inactive
TPVWVGVSLVPPIAPTTWIN | 0.288 ± 0.28
GVSASQSTMLNCDNVTEDVS | 0.753 ± 0.22
FRSVFDKFLRYVFSFDVY | -0.984 ± 0.76
VFFSESERYSGVKLGAVEDT | 0.189 ± 0.49
GKRFNFVTCPPVLRR | -0.088 ± 0.34
HRTLMIVKLCKRSGPFIL | -1.22 ± 0.42
WHLCFISHTLRGMRTLWSIR | -0.829 ± 1.1
GFSSNLVVLKKPS | -0.249 ± 1.1
FLFETMVIFSSSEMVWRDWC | 0.192 ± 1
GVPCRWTVPNANGSSVWSLR | 0.776 ± 0.3
RKCLGLRSYATTFRVDQHSC | 0.266 ± 0.3
SYIHRAWAYM | inactive
NMGIFALGAEQD | -0.039 ± 1.1
TIVWLGRPLYTGFKNTKRGH | inactive
NMHNTCMYKRKLVMDSSVWL | inactive
GEQSDFSSSYSYLLWKVWDG | -1.2 ± 0.36
TVFSYSWQFYGMHSISDYMI | inactive
NWVRINYWLRAIIKSELRVG | -0.155 ± 0.49
IYFYKSGESFRAYPFAPGQW | -1.37 ± 0.75
RCFSTHVAQDQLFVY | inactive
TTFILNMMLYNSCTYVYMSL | 8.549 ± 0.073
CSFHVGNLTWWANVEARVVV | 0.176 ± 0.29
INFMAVDDKPRVVVEPCPSA | 0.623 ± 0.62
WWNEYSH | -1.01 ± 0.39

Substance | amyloid nucleation score
EVLGLV | -0.841 ± 0.64
RIVIFFFTCIYPIWIRNTWP | -1.18 ± 1.1
HGCLYFRFLNALSSFGGYRA | -1.7 ± 1
HIVVTKTWAGQRHVQFIM | 1.07 ± 0.26
ITIQKIVEYISLNPEDT | 5.878 ± 0.055
NFFVFYIR | 7.06 ± 0.072
VKLPITGIERLLEARQGDQW | 0.757 ± 0.39
AALCRMFWTAISYWCEWSLG | 0.157 ± 0.55
CITLRYYMDVRLSLHMKRTW | 0.988 ± 0.53
IHNDCKLPMFVIMFS | 6 ± 0.082
SLFTTINARNATAEQCSMQT | 0.502 ± 0.21
IPTFKDLGFISESIMYNG | -1.38 ± 0.42
TPNYLSHTVVCVCINNVLIF | 4.74 ± 0.058
YYTLWVTLTRLTNC | -0.288 ± 0.5
GSLYVLAMLSGYVAKPYKIY | -0.072 ± 0.79
ICSTVSVIKT | -0.249 ± 0.64
FFDYLANFCLSKHGNNNYPF | -0.97 ± 1.1
GSRVWFEIINL | 6.013 ± 0.026
NRLMVPSTNKFTCLPE | 0.056 ± 0.36
VATNCINMGS | -0.197 ± 0.79
VYRQNLNLNME | 0.189 ± 0.64
KFSGRYWTGIEGVRISVCLH | -0.778 ± 0.56
YFCRMMCLNRWIGRLLFRCN | 0.775 ± 0.62
DLIMETYHLVSKCTFCGIEN | 6.473 ± 0.06
DLDRPYRDIFGTT | inactive

Substance | amyloid nucleation score
ALMNPHFFSWCLKMVGYGYR | inactive
ARLVYQLATRTCCFSQ | -0.032 ± 1.1
LGGTY | -0.449 ± 0.64
MRFNDTENWGVSDVISSNDF | inactive
FLKYSDKQHAVNVGLKVTAQ | 0.094 ± 0.74
SRIMALTMCFYTNRGRELVN | -1.19 ± 0.38
SCYIDRTRYWDGYFLLCSMD | 0.949 ± 0.74
QLVGSLGGAQGTAGRYRYTG | 0.658 ± 0.51
IHICKQTCG | 0.812 ± 0.3
LSDYLPISSWFSLCTEFLAT | -1.02 ± 1.1
NRRFSSGSVSSLKFLRSVWA | -0.428 ± 0.61
LTVRDLVPPPAMANRFLTVI | -0.016 ± 0.44
CTYHAQVFTFDHPGRSTRYS | -0.274 ± 0.76
TPENFHLR | inactive
LAQMQR | -0.169 ± 0.8
LNMMIINISFRSKSVDGSRM | 6.945 ± 0.056
RYKSFMVQQSIDNRVLVGVC | 0.241 ± 0.8
FTSLGMQLCYWHRISLCVSW | -1.05 ± 0.61
FMSMLSCQAKTNLPMYATHM | -0.091 ± 0.79
RLIYCVVGRCCNCSFYFTRM | 2.75 ± 0.09
LDMGCNRPEVYGNKCAMVSW | 0.75 ± 0.21
RVRGWLSMSWGCGMGLPASS | 7.03 ± 0.074
CRCTSIRGLKCIRW | 0.767 ± 0.15
RIFLYND | inactive
MFLFGASLRIIRVVLTYELL | inactive

Substance | amyloid nucleation score
VSLSLC | -0.288 ± 0.5
DVHRWKIWQASG | 0.901 ± 0.26
FYKLVAGNLANPCANRTCYL | -0.031 ± 1
YLVNNNFFVTIVILVWRTGV | 1.39 ± 0.18
VTSYHFRMSCAVREALSSRY | 4.26 ± 0.055
VGDVGMFFLSR | -0.668 ± 0.34
YPGWPMKTVQ | 3.97 ± 0.05
KPWTYDMVCSRFTSMWFCDY | 0.644 ± 0.38
LFNEDACTFLTMCANIKVGQ | 4.97 ± 0.081
SVVMTIHNIGWMLRCSGIVY | -0.823 ± 0.56
DVLCS | 0.626 ± 0.57
FDYVLSGICIPLKSIGVSFG | 8.385 ± 0.053
IVTTKWGNSHVSSVRIKARL | 5.42 ± 0.084
ICQCGYFWF | 2.8 ± 0.15
LNVPGSAMNGRSRNPSF | -0.661 ± 0.48
GGDSECGYNGVFVGYAVFWC | 0.128 ± 0.29
ELQGYSNCGLEIGGTCHRGY | -0.302 ± 0.61
IIKLPWFWDAFKAARQ | -0.069 ± 0.3
YTVYFSVGVVVE | -1.42 ± 0.49

Reference: the supplement of paper PMC12042874
